Substrate in this series: CCCCCC1CCN=C1C
The series is described as follows: purified protein. The format is biochemical, Hahella chejuensis. To be noted: MES pH 6.0 10 mM, 30 °C, air, DMSO, racemic substrate 0.1–1.4 mM, HapB 0.457 μM.

B1: HapB (Hahella chejuensis KCTC 2396) (protein)
chain: MESQDNSQYAGEAPVFPSKDFECNQGSFDDTDTSPPQHAGDYDVIVVGGGISGLSSAWKLRERKLLVLDQRDRFGGAARLEQRDGLLYASGASCFQLPTGHNEVSHLLQDLDLWNQWRSTAEDTLVIFDTKRLMKGLGEVTAALLKQPKELLKPAVWGLTANLLYSAMSGKPFISAEKKLGDPMFADLFQYLNRFTPDSGKHPAMPWREGCDWTREEMELFDSVSLHDLLFDPATRRSLPQDLIPRHRFGSLVKDAVETTLRVECLAIKDVSAYVGLHFLVGYLYRPLVTFPGGNGYIADRIRQRLMSTGSCKFKAGSRAYSITQNQEGVKVCFQQEGKNYYANANALIWAGAKHAAVSVVDGLPQQQKAAIAEIEHRDYAIAGVYLKKAALANYFGGYVIEGDIGGRYPNSWCRSGVCLAANWKDPSYAGGLGVLTLLKPISGAADQGKLGKADFRNLQQTAYGEVRDMLVATGHSPDLIEDIKLWRWPHGLVVSKVGQMKHDVFVNASQPVGAVFFANQDSVGMGNMESAIWAGCHAAEQVRRHFRSHSSVVSHIGDYAATQS
notes: full-length, N-terminal His6 tag (pQE80-L, pHDB1), E. coli BL21, Ni-NTA; soluble, lacks the N-terminal transmembrane domain of PigB
As a reminder, the Km is the concentration of substrate that gives half-maximal velocity. By kcat is commonly meant the number of substrate molecules converted per active site and unit of time at saturation. With B1, the Km came out at 220 ± 80 µM and the kcat was found to be 0.228 ± 0.02 s⁻¹.

For the origin of these results see paper PMC7065143, “Substrate Flexibility of the Flavin‐Dependent Dihydropyrrole Oxidases PigB and HapB Involved in Antibiotic Prodigiosin Biosynthesis” (Chembiochem, 2019).
